According to the supplement of paper PMC6757056:
± gives the standard deviation of the averaged measurements.

B1: library; a variant is named by its letters at N, in order (parent)
chain: GCUGUCACCGGUGCUUGGUACGUUAUAUUCAGCCGGUCUGAUGAGUCUNNNNNNAGACGAAACAGC

Experiments:
[1] = variants of: B1; assay: normalized RNA/DNA level without ligand (relative to sTRSVctl = 100) (log10 (% of sTRSVctl)); HEK293T overexpressing SLC46A1; higher = less ribozyme self-cleavage, higher mRNA level; settings: without (6R,S)-folinic acid; ligand present: no
Procedure, shortened: (§1)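 Total RNA, extracted with EDTA 72 h after HEK293T cells were transfected with 4 µg per 6-well well of reporter-linked ribozyme switch library plasmids, was reverse-transcribed, amplified, barcoded and sequenced. Ligand, if used, was added 1 h before transfection. RNA level was derived from RNA reads divided by DNA reads and normalized to a spiked-in non-cleaving sequence or to the top sequences. This was multiplied by 100 and log10-transformed, with the top set of 25 sequences and a ≥100 DNA read minimum.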

[2] = variants of: B1; assay: normalized RNA/DNA level with ligand (relative to sTRSVctl = 100) (log10 (% of sTRSVctl)); HEK293T overexpressing SLC46A1; ligand concentration (+) RNA-Seq: 6 mM; higher = less ribozyme self-cleavage, higher mRNA level; settings: with (6R,S)-folinic acid; ligand present: yes
Procedure, shortened: as §1

Variant	normalized RNA/DNA level without ligand (log10) [1]	normalized RNA/DNA level with ligand (log10) [2]
GUAGGU	1.998 ± 0.013	2.04 ± 0.03
GUAGGA	1.946 ± 0.0025	2 ± 0.047
CUAGCA	2.038 ± 0.0039	2.041 ± 0.0037
CUAGCU	2.033 ± 0.0023	1.993 ± 0.014
CUAGCC	2.024 ± 0.015	1.98 ± 0.036
CUAGCG	2.0229 ± 0.0015	2.05 ± 0.042
CUCACG	2.04 ± 0.027	2.028 ± 0.02
CUCACC	2.06 ± 0.029	1.96 ± 0.048
CUCACU	2.041 ± 0.0055	1.99 ± 0.021
CUCACA	2.036 ± 0.0022	2 ± 0.049
AUCGAU	1.98 ± 0.025	2.02 ± 0.031
AUCGAA	1.974 ± 0.0042	2 ± 0.02
AUAUCU	2.0373 ± 0.00034	2.05 ± 0.04
AUAUCG	1.962 ± 0.0099	2.03 ± 0.035
AUAUCA	2.0081 ± 0.00069	2.04 ± 0.036
CUCAAC	2.07 ± 0.029	2.045 ± 0.0073
CUCAAA	2 ± 0.016	1.97 ± 0.032
CUCAAG	1.96 ± 0.024	2.01 ± 0.023
AUCAAU	1.989 ± 0.0025	2 ± 0.053
AUCAAC	2.0326 ± 0.00048	2.01 ± 0.033

Variant	normalized RNA/DNA level without ligand (log10) [1]	normalized RNA/DNA level with ligand (log10) [2]
AUCAAA	2.002 ± 0.0041	2 ± 0.04
AUCAAG	1.93 ± 0.021	2 ± 0.026
GUAGCC	2.021 ± 0.016	2.051 ± 0.0086
GUAGCG	1.93 ± 0.023	2.01 ± 0.036
GUAGCA	1.973 ± 0.0074	2 ± 0.022
CUCAGU	2.024 ± 0.015	2.017 ± 0.015
CUCAGG	1.99 ± 0.021	2.03 ± 0.03
CUCAGA	2.048 ± 0.019	2.03 ± 0.07
CUCAGC	2.06 ± 0.0071	2.032 ± 0.0023
UUCCAG	1.91 ± 0.021	1.99 ± 0.034
UUCCAU	1.99 ± 0.023	1.99 ± 0.049
UUCCAC	2.01 ± 0.016	1.99 ± 0.033
CUAUCU	2.042 ± 0.0051	2.06 ± 0.022
CUAUCC	2.07 ± 0.03	2.04 ± 0.037
CUAUCG	2.037 ± 0.015	2.02 ± 0.043
CUAUCA	2.03 ± 0.035	2.0307 ± 0.00092
CUCCCA	2.064 ± 0.0049	2.01 ± 0.061
CUCCCC	2.02 ± 0.033	2 ± 0.058
CUCCCU	2.04 ± 0.044	2.05 ± 0.062
CUCCCG	2.067 ± 0.0068	2.0818 ± 0.00082

Variant	normalized RNA/DNA level without ligand (log10) [1]	normalized RNA/DNA level with ligand (log10) [2]
UUAUGG	1.798 ± 0.008	1.97 ± 0.0093
UUAUGC	1.989 ± 0.0091	2.02 ± 0.039
UUAGGU	1.942 ± 0.0098	1.971 ± 0.016
AUCCAG	1.981 ± 0.0027	2 ± 0.031
AUCCAU	1.991 ± 0.0092	2.01 ± 0.042
AUCCAA	1.958 ± 0.0049	1.98 ± 0.02
AUCCAC	2.037 ± 0.013	2.02 ± 0.037
UUCACA	1.966 ± 0.017	1.971 ± 0.015
UUCACG	1.954 ± 0.013	2.01 ± 0.028
UUCACC	2.06 ± 0.036	2.02 ± 0.068
GUAUCU	2.034 ± 0.0026	2.038 ± 0.011
GUAUCC	2.015 ± 0.013	2 ± 0.035
GUAUCG	2.028 ± 0.017	2.05 ± 0.041
GUAUAC	1.9802 ± 0.0015	2.02 ± 0.026
GUAUAU	1.944 ± 0.018	1.97 ± 0.043
GUAUAA	1.96 ± 0.014	1.99 ± 0.006
AUCCUC	2.1 ± 0.022	2.02 ± 0.025
AUCCUA	1.987 ± 0.0057	2.01 ± 0.079
